From article PMC11988251

Biological target: HuROR2-mFc
Test: ELISA

Q: Which EC50 (pH 6.0, 1.26 g/L sodium bicarbonate, 0.09 g/L L-lactic acid) does the source give for BA302 here?
A: 0.0119 µg/mL

Q: And the EC50 (pH 7.4, 1.26 g/L sodium bicarbonate, 0.09 g/L L-lactic acid)?
A: no meaningful EC50 could be calculated

Q: Which results are given for BA3021?
A: EC50 (pH 6.0, 2.5 g/L sodium bicarbonate): 0.0563 µg/mL; EC50 (pH 7.4, 2.5 g/L sodium bicarbonate): no meaningful EC50 could be calculated
